Assay results taken from patent publication US20160200782A1 (MOERAE MATRIX, published 2016).

Legend:
Assay in all cases: cell-based or functional assay
[1] = molecular target: HIPK2(h) (human, UniProt Q9H2X6 165-564, limits assumed)
[2] = molecular target: PAK2(h) (human, UniProt Q13177 1-524, limits assumed)
[3] = molecular target: PKBα(h) (human, UniProt P31749 1-480, limits assumed)
[4] = molecular target: PKBγ(h) (human, UniProt Q9Y243 1-479, limits assumed)
[5] = molecular target: RIPK2(h) (human, UniProt O43353 1-299, limits assumed)
RIPK2(h), sequence (O43353 1-299 limits assumed): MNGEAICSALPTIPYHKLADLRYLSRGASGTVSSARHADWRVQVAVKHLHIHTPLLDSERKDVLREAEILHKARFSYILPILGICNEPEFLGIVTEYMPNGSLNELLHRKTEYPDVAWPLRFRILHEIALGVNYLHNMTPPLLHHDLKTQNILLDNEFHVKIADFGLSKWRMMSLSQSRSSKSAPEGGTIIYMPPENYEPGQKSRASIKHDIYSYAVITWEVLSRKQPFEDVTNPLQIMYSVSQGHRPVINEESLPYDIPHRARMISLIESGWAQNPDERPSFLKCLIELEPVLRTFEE

[6] = molecular target: T1, SGK2(h) (human, UniProt Q9HBY8 1-367, limits assumed)
T1 sequence (looked up): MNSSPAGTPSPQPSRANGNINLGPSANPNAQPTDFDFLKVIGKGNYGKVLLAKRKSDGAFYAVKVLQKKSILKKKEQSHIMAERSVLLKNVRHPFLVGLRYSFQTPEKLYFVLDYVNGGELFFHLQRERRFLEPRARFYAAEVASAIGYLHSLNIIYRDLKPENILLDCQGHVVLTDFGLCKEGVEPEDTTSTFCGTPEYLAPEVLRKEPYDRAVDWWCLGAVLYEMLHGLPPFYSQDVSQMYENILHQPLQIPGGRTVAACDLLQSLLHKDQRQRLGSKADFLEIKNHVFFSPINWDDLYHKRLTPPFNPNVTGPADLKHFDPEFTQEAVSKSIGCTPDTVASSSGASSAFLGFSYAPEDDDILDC

[7] = molecular target: T2, Tec(h)activated (human, UniProt P42680 1-631, limits assumed)
T2 sequence (looked up): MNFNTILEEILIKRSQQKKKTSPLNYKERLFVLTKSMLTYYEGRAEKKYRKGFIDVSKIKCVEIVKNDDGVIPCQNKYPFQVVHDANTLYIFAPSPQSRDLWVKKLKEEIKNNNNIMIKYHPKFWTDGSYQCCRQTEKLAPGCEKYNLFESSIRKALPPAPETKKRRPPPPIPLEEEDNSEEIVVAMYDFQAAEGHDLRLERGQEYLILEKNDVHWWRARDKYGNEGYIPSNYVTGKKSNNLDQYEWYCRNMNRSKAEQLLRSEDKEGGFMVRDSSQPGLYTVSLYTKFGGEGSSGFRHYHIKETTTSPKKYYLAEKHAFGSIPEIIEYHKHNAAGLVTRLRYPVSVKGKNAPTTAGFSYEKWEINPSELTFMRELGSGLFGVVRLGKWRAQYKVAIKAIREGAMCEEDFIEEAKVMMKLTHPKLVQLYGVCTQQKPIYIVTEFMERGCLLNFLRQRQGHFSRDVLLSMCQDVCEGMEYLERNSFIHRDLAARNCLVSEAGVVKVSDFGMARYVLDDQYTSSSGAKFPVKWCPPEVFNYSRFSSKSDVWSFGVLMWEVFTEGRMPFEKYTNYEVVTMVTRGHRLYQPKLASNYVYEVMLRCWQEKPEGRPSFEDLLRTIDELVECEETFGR

[8] = molecular target: T3, Txk(h) (human, UniProt P42681 1-527, limits assumed)
T3 sequence (looked up): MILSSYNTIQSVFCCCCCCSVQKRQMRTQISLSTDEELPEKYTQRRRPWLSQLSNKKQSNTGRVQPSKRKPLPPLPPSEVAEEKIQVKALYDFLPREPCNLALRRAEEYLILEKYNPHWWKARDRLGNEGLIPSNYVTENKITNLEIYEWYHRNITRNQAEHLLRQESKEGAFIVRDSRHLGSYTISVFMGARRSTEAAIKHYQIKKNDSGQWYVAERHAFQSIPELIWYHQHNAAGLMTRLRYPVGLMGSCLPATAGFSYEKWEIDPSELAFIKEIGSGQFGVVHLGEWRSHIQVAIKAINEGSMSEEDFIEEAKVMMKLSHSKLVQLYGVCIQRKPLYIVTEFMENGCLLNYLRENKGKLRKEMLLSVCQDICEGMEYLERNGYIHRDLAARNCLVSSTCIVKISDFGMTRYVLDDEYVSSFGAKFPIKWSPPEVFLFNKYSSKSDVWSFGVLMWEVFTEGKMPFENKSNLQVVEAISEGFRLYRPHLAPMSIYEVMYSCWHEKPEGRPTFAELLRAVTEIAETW

[9] = molecular target: T4, DRAK1(h) (human, UniProt Q9UEE5 1-414, limits assumed)
T4 sequence (looked up): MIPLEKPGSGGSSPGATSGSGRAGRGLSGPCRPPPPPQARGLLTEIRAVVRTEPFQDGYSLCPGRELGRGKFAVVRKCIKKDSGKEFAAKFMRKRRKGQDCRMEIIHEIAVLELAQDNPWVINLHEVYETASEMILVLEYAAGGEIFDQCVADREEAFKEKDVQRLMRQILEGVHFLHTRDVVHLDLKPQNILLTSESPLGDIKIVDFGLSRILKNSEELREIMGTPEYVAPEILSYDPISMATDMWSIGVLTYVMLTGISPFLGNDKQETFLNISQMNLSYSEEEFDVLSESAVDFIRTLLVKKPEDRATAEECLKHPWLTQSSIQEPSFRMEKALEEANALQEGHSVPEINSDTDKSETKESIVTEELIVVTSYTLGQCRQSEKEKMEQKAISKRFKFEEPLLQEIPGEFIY

[10] = molecular target: FAK(h) (human, UniProt Q05397 1-1052, limits assumed)
FAK(h), sequence (Q05397 whole entry): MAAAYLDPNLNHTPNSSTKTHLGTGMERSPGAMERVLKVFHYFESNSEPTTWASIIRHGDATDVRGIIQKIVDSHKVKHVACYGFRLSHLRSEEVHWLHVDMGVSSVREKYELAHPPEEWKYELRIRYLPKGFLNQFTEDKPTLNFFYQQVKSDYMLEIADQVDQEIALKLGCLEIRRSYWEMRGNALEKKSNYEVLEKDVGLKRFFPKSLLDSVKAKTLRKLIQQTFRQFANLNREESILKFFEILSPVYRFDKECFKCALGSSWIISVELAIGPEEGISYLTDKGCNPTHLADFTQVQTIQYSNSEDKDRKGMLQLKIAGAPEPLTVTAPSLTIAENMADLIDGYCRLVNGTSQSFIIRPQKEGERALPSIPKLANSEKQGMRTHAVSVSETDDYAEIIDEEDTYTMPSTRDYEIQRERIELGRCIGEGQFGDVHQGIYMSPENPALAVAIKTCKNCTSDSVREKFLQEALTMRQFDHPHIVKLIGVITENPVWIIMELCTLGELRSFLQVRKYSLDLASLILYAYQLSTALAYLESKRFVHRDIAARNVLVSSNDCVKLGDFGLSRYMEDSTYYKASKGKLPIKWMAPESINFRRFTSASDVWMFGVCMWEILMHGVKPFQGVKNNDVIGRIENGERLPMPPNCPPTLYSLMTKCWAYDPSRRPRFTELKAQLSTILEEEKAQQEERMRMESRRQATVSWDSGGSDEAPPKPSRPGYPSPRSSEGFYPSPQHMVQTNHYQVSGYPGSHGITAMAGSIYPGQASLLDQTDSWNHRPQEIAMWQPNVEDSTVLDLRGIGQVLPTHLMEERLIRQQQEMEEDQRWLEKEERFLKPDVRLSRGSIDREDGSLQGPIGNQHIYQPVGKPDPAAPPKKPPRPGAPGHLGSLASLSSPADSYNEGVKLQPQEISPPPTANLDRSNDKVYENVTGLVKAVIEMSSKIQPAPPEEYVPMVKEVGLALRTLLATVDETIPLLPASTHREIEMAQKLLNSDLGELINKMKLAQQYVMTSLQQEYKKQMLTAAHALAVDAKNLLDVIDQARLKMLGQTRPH

[11] = molecular target: FGFR1(V561M)(h) (human, UniProt P11362 456-765, limits assumed)
FGFR1(V561M)(h), sequence (P11362 456-765 V561M limits assumed): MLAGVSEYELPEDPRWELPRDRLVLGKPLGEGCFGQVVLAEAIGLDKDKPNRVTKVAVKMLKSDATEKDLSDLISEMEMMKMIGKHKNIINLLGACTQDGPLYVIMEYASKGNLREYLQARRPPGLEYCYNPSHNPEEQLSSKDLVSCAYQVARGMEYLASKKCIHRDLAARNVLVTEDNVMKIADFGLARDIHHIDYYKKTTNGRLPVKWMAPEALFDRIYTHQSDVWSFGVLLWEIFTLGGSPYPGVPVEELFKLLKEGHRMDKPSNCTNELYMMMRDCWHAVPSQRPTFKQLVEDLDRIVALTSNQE

HIPK2(h), sequence (Q9H2X6 165-564 limits assumed): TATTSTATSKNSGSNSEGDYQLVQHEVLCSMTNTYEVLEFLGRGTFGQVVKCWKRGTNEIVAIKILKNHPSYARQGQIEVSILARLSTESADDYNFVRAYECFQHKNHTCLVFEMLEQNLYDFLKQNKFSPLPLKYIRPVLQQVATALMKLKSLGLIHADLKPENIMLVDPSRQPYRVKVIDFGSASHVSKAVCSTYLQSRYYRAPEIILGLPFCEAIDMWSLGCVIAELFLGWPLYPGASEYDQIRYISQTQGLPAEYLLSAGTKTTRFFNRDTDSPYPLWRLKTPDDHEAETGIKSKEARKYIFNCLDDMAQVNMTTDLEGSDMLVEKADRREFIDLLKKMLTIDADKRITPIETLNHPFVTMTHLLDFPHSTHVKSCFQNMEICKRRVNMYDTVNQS
PAK2(h), sequence (Q13177 whole entry): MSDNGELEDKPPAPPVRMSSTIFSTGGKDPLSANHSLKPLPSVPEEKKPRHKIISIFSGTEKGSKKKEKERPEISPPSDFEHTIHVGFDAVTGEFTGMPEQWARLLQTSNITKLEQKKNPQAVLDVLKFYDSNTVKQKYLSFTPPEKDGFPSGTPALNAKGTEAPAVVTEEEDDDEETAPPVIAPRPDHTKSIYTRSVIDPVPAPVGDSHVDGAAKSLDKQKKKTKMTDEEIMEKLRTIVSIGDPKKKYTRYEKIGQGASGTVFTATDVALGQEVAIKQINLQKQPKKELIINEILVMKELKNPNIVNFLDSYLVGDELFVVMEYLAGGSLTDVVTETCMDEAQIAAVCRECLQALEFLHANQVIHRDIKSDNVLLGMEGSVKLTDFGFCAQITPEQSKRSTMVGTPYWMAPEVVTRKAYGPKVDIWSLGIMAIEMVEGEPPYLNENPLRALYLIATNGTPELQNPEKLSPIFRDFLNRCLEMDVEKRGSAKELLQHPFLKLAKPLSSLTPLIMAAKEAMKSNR
PKBα(h), sequence (P31749 whole entry): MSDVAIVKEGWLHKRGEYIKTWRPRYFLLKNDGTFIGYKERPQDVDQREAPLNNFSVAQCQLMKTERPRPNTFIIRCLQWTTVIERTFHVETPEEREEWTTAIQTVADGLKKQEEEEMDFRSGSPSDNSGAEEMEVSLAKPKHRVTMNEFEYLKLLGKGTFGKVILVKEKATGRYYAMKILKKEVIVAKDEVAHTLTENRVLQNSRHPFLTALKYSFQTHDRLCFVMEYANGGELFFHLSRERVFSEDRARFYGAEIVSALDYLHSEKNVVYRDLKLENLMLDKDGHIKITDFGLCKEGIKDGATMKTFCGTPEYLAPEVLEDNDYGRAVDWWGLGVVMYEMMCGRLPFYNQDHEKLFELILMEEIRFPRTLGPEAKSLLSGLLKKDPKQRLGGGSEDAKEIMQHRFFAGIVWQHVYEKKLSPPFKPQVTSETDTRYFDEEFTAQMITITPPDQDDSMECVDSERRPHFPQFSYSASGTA
PKBγ(h), sequence (Q9Y243 whole entry): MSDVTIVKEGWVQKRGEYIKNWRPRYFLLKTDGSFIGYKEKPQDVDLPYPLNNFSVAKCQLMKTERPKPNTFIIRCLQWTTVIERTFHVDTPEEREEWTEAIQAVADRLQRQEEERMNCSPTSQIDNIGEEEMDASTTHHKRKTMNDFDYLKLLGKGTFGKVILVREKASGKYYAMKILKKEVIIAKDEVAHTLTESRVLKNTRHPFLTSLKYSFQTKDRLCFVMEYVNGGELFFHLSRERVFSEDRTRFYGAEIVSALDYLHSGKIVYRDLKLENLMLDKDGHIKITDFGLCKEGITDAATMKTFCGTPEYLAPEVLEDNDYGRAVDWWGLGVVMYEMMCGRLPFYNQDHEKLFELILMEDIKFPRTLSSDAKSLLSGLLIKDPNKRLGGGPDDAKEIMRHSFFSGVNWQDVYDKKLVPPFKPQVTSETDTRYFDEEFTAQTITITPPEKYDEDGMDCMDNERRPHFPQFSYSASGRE

In the case of FAKLAARLYRKALARQLGVAA [MMI-0300], the “% activity” value [1] is reported as 73%, the “% activity” value [2] is reported as 65% and the “% activity” value [3] is reported as 57%. For the same binder, the “% activity” value [4] was 20%, the “% activity” value [5] was 97% and the “% activity” value [6] was 56%. The “% activity” value [7] was 56%, the “% activity” value [8] was 48% and the “% activity” value [9] was 14%. For the same binder, the “% activity” value [10] was 111% and the “% activity” value [11] was 74%.

In the case of KAFAKLAARLYRKALARQLGVAA [MMI-0400], the “% activity” value [1] is reported as 90%, the “% activity” value [2] is reported as 59% and the “% activity” value [3] is reported as 67%. The “% activity” value [4] was 41%, the “% activity” value [5] was 98% and the “% activity” value [6] was 98%. For the same binder, the “% activity” value [7] was 29%, the “% activity” value [8] was 37% and the “% activity” value [9] was 14%. The “% activity” value [10] was 96% and the “% activity” value [11] was 74%.
